# Measured values reported in the nanobody polyreactivity screen of Harvey et al. (2022).
# Assay: yeast display, Sf9 membrane polyspecificity reagent, FACS + sequencing; frameworks hold sequencing errors
# Method in brief: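 Sorting gates, low and high (top ~1%), were placed on anti-HA fluorescence to track expression and on streptavidin fluorescence to track reagent binding. A clone's polyreactivity label is taken from the gate it came out of. The reagent was 10% biotinylated, detergent-solubilized Sf9 membrane, applied for 1 hour at 4 °C to galactose-induced yeast display cells.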
row,Sequence,polyreactivity (PSR sort gate)
1,QVQLVESGGGLVQAGGSLSLSCAASGSTFVENAMGWYRPAPGKERELVAGISIGGITYYADSVKGRFTISRDNAKNTVYLQMNSLKPEDTAVYYCGKRHKRTRNKYYYWGQGTQVNVSS,high polyreactivity
2,QVQLVESGGGLVQAGGSLSLSCAASGSTFVIYAMGWYRQAPGKERELVASIRGRTGSTYNADSVKGRFTISRDNAKNTVYLQMNSLKPEDTAVYYCAAKPGYKSKMDYWGQGTQVSVSS,high polyreactivity
3,QVQLVESGGGLVQAGGSLSLSCAASGSTFVWYAMGWYRQAPGTERELVATITYGGGSTNYADSVKGRFTISRDNAKNTVYLQMNSLKPEDTAVYYCNADTYFESGYWGQGTLVTVSS,low polyreactivity
4,QVQLVESGGGLVQAGGSLSLSCAASGSTLRQYAMGWYRQAPGKERELVAGISYRGGRTYYADSVKVRFTISRDNAKNTVYLQMNSLKPEDTAVYYCNALRHYGDISVDCDDYWGQGTQVTVSS,high polyreactivity
5,QVQLVESGGGLVQAGGSLSLSCAATGRLFSWYTMGWYRQAPGKERELVAAISWSGTSTYYADSVKGRFTISRDNAKNTVYLQMNSLKPEDTAVYYCNKVNPANIRRSYDYWGQGTQVTVSS,high polyreactivity
6,QVQLVESGGGLVQAGGSLSLSCAATGSIFPPNAMGWYRQAPGKEREFVASITSSGGITNYADSVKGRFTISRDTAKNTVYLQMNSLKTEDTAVYYCAAKYYGGTRFRPYGYWGQGTQVTVSS,high polyreactivity
7,QVQLVESGGGLVQAGGSLSLSCAAYGRTFYRNAMGWYRQAPGKERELVAAISYSGGSTYYADSVKGRFTISRDNAKNTVYLQMNILKPEDTAVYYCNVLYRVDYYRRVDYWGQGTQVSVSS,high polyreactivity
8,QVQLVESGGGLVQAGGSLSLSCADSGRNFAPYAMGWYRQAPGKERELVAAITSGGSTNYADSVKGRFTISRDNAKNTVYLQMNSLKPEDTAVYYCAARQPGTRYPYDYWGQGTQVTVSS,high polyreactivity
9,QVQLVESGGGLVQAGGSLSLSCDASGRIFPKYAMGWYRQAPGKEREMVAGITKLVGSTYYADSVKGRFTISRDNAKNTVYLQMNSLKPEDTAVYYCAADYSYLIDYLDPEKEGMDFWGQGTQVTVSS,low polyreactivity
10,QVQLVESGGGLVQAGGSLSLSSAASGFTSTLNDMGWYRQAPGKERELVAAISNGGSTYYADSVKGRFTISRDNAKNTVYLQMNSLKPEDTAVYYCAVTATAPQEGDYWGQGTQVTVSS,low polyreactivity
11,QVQLVESGGGLVQAGGSLSLTCAASGSIFRYYAMGWYRQAPGKERELVADITSSGGSTYYADSVKGRFTISRDNAKNTDYLQMNSLKPEDTAVYYCAALYWFYVYPFTEYDYWGQGTQVTVSS,low polyreactivity
12,QVQLVESGGGLVQAGGSLSLTCAASGSTFDWYAMRLYRQAPGKERELVAASTSGGSTYYADSVKGRFTISRDNAKITVYLQMNSLKPEDTAVYYCAAESRQVRYILYYYWGQGTQVTVSS,low polyreactivity
13,QVQLVESGGGLVQAGGSLSLTCAASGSTFPGYPMGWYRQAPGKERELVAAINWRGDSTYYADSVKGRFTISRDNAKNTVYLQMNSLKPEDTAVYYCAAVRGTGTRRYDYWGQGTQVTVSS,high polyreactivity
14,QVQLVESGGGLVQAGGSNRLSCAASGCIFSRYLMGWYRQAPGIETELVADISGSRGRTYYADSVKGRFTISRDNAKKTVYLQMNSLKPEDTAVYYSNKVWFGYSGVDDYWGQGTQVTVSS,high polyreactivity
15,QVQLVESGGGLVQAGGSPRLSCAASGRIFHPYAMGWYRQAPGKERELVATISWSGGSTTYADSVKGRFTISRDNAKNTVYLQMNSLKPEDTAVYYCNADYWWSYVRFDYWGQGTQVTVSS,low polyreactivity
16,QVQLVESGGGLVQAGGSPRLSCADSGGIFGIYAMGWYRPAPGKERELVAAIRRGGSTSYADSVKGRFTISRDNAMNTVYLQMNSLKPEDTAVYYCAAGSYYRYGYWGQGTQVTVSS,high polyreactivity
17,QVQLVESGGGLVQAGGSQRLSCAASGSIFDLKAMGSYRQAPGKERELVAAISSGGGTYYADSVKGRFTISRDNAKNTVYLQMNSLKPEDTAVYYCNRVTRWTYNYWGQGTQVTVSS,high polyreactivity
18,QVQLVESGGGLVQAGGSRLICAASGLIFIWYTMGWYRQAPGKERELVAAIDSSGGNTYYADSLKGRFSISRDNAKNTVYLQMNSLKPEDTAVYYCAKDVGHGAGNLMGYWGQGTQVTVSS,low polyreactivity
19,QVQLVESGGGLVQAGGSRLSCAASGLIFISYTMGWYRQAPGKERELVAAIDSSGGNTYYADSVKGRFTISRDNAKNTVYLQMNSLKPDDTAVYYCNAAWPYKSVEYCGQGTQVTVSS,low polyreactivity
20,QVQLVESGGGLVQAGGSRRLSCAAAGISFGWYSMGWYRQAPGKERELVATISQSGTSTYYADSVKGRFTISRDNAKNTVYLQMNSLKPEDTAVYYCAADYIRGYYYRVPLEVDYWGQGNQVTVSS,low polyreactivity
21,QVQLVESGGGLVQAGGSRRLSCAASGFMFGVNAMGWYRQAPGKERELVAVISVRGGSTYYADSLKGRFTISRDNAKNTVYLQMNSLKPEDTAVYYCAADTFAGYYYWGQGTQVTVSS,high polyreactivity
22,QVQLVESGGGLVQAGGSRRLSCAASGFTFPHYLGRYRQAPGKERELVAAIIVSGGSTSYADSVKGRFTMSRDNAKNTVYLQMNSLKPEDTAVYYCAKDLRFRLFSYPSDYWGQGTQVTVSS,low polyreactivity

row,Sequence,polyreactivity (PSR sort gate)
1,QVQLVESGGGLVQAGGSRRLSCAASGNTFYGYAMGWYRQAPGKERELVASITMSGDSTYYADSVKGRFTISRDNAKNTVYLQMNSLKPEYTSVYYCAGVYTYPLGYYHYTYDYWGQGTQVTVSS,low polyreactivity
2,QVQLVESGGGLVQAGGSRRLSCAASGRIFRGYAMGWYRQAPGKERELVAAISASGGSTYYADSVKGRYTISRDIAKNTVYLLMISLKQVDTAVYYCATGGYARYDFWGQGTQVTVSS,high polyreactivity
3,QVQLVESGGGLVQAGGSRRLSCAASGRTFVSNVMGWYRPAPGKDRELVAAINWSGDSTYYADSVKGRFTISRDNAKNTVYLQMNSLKPEDTAGYYCAVQGGYFDTWDGDYWGQGTQVTVSS,low polyreactivity
4,QVQLVESGGGLVQAGGSRRLSCAASGSIFPVYAMGWYRQAPGKERELVASISTGGSTYYADSVKGRFTISRDNAKNTVYFQLNSLKPEDTAVYYCAATGWAYGYGYGYWGQGTQVTESS,low polyreactivity
5,QVQLVESGGGLVQAGGSRRLSCAASGSIFSGNTMGWYRQAPGKERELVAAISSGGSTKYADSVKGRFTISRDNAKNTVYFQMNRLNPEDSAVYFCGATSSYRLRDRHRIWYGYWGQGTEVTVSS,high polyreactivity
6,QVQLVESGGGLVQAGGSRRLSCAASGSIFVKYAMGWYRQAPGKERELVAAKSQSGVRTYYADSVKGRFTISRDNAKNTVYLQMNSLTPEDTAVYYCAAYSGYYYWGQGTQVTVSS,high polyreactivity
7,QVQLVESGGGLVQAGGSRRLSCAASGSIFYTYLMGWYRPAPGTDRELVAAISASGVRTYYADSVKGRFTISRDNAKITVYLEMNSLKPEDTAVYYCAADRQRADYYWGQGRQVTVSS,high polyreactivity
8,QVQLVESGGGLVQAGGSRRLSCAATGRTFGRYSMGWDRQAPGKERELVAAITTIGGSTYYADSVKGRFTISRDNAKNTVYLQMNSLKTEDTAVYYCAAGWVTNSDGMDYWGQGTQVTVSS,low polyreactivity
9,QVQLVESGGGLVQAGGSRRLSCAPSGKIFGSNAMGSYRQAPGKERELVAAISKSCGRTYYADSVKGRFTISRDNAKNTVYLQMNCLKPEDSAVYYCGAYDGYYEFDYWGQGTQVPVSS,low polyreactivity
10,QVQLVESGGGLVQAGGSRRLSFAASGFTFKYYAMGWYRQAPGKERELVDAISRRGGSTSYADSVKGRFTISRDNAKNTVYLKMNSLKPEDTSVYYLAADSSFERSSDYWGQGTQVTVSS,high polyreactivity
11,QVQLVESGGGLVQAGGSVRLSCAASGFIISYYAMGWYRQAPGKERELFAAISWSGGSTYYADSVKGSFTISRDNAKNTVYLQMNSLKPEDTAVYYCAADFLYGAEGNDYWGQGTQVTVSS,high polyreactivity
12,QVQLVESGGGLVQAGGSVRLSCAASGFTFGYYAMGWYRQAPGKERELVASISSVDNTYYADSVKGRFTISRDNAKNTVSFQMNSLKPEDTAVDYCAARYRDYFVRGGYWGQGTQVSVSS,high polyreactivity
13,QVQLVESGGGLVQAGGSVRLSCAASGGTFKANAMGWYRQAPGKERELVAAISWSGGSTYYADSVKGRFTISRDNAKNSVYLQMNSLKPEDTAVYYCRYWKYRSYDYWGQGTQVTVSS,high polyreactivity
14,QVQLVESGGGLVQAGGSVRLSCAASGRIFGIYAMGWYRQAPGKERELVAAITWIGGRTYYADSVKGRFTISRDNAKNTVYLQMNSLKPEDTAVYYCNAVYTQRFATYRRYDYWGQGTQVTVSS,high polyreactivity
15,QVQLVESGGGLVQAGGTLRFSCAASGFTFYVYAMGWYRQAPGKERELVAAISKSGGSTYYADSVKGRFTISRDNAKNTVYLQMNSLKPEDTAVYYCAVYDKRSGYRGGHRYNSWGQGTQVTVSS,high polyreactivity
16,QVQLVESGGGLVQAGGTLRFSCAASGLTIDRYAMGWYRQAPGKERELVAAISFTGDRTYYADSVKGRFTISRDNAKNTVYLQMNSLKPEDTAVYYCAVRRYGYRKYDSWGQGTQVTVSS,high polyreactivity
17,QVQLVESGGGLVQAGGTLRLICAASGSIFGYYTMGWYRQASGKERELVAAITSGGSTNYADSVKGRFTISRDNAKNTVYLQMNSLKPEDTAVYYCATVSYYPWRYDYWGQGTQGTVSS,low polyreactivity
18,QVQLVESGGGLVQAGGTLRLSCAASGFTFAVYAMGWYRQAPGKERELVAAISRSGTRTYYADSVKGRFTISRDNSKNPVYIQMNSLKPEDTAVYYCAADKYRNGYDYWGQGTQVTVSS,low polyreactivity
19,QVQLVESGGGLVQAGGTLRLSCAASGFTLSVYAMGWYIQAPGKDRELVAAITRSTGSTYYADSVKGRFTISRDNAKNTVYLQMNSLKPEDTAVYYCNAGHFAHHHGYYRSKYDYWGQGTQVTVSS,low polyreactivity
20,QVQLVESGGGLVQAGGTLRLSCAASGGIFVANAMGWYRQAPGKERELVAAISRSGGSTYYADSVKGRFTISRDNAKNTVYLQMNSLKPEDTAVYYCAAKSRRQYTVGLTSDYWGQGTQVTVSS,high polyreactivity
21,QVQLVESGGGLVQAGGTLRLSCAASGGTFVSRAMGWYRQAPGKERELVAAISFSGDSTYYADSVKGRFTISRDNAKNTVYLQMNSLKPEDTAVYYCRFYSYWSWLGREYDYWGQGTQVTVSS,low polyreactivity
